Test results taken from patent US20120165503A1 (Merck Sharp & Dohme, published 2012).
*1 amine or outer side, *2 acyl side, *3 side chain or, on linkers, in order; H or OH if unused. Where no end group is shown, it is not given here. Side-chain parts run from the residue outwards. [ ]: non-standard residue; d: D form. The star is where a group is joined. d(γGlu) = O=C(O)[C@@H](CCC(=O)[*:2])N[*:1]; γGlu = O=C(O)[C@H](CCC(=O)[*:2])N[*:1]; Stearoyl = CCCCCCCCCCCCCCCCCC(=O)*; Palmitoyl = CCCCCCCCCCCCCCCC(=O)*; Myristoyl = CCCCCCCCCCCCCC(=O)*; Aib = CC(C)(N)C(=O)O

Experiments:
human glucagon receptor = human glucagon receptor (human, UniProt P47871 26-477); experiment: cell-based or functional assay
Sequence of human glucagon receptor (P47871 26-477): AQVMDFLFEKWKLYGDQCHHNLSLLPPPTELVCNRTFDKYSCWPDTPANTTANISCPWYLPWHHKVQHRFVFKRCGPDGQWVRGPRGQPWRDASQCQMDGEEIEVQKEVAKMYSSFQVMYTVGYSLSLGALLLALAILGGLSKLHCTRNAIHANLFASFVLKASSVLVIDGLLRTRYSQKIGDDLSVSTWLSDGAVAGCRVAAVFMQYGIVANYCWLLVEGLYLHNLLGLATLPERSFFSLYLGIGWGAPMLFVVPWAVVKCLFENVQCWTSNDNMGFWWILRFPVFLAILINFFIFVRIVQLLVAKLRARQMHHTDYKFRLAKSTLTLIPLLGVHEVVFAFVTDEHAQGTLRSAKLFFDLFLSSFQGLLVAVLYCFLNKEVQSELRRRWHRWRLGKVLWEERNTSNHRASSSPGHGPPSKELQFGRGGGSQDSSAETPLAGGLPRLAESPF

human GLP-1 receptor = human GLP-1 receptor (human, UniProt P43220 24-463); experiment: cell-based or functional assay

B1: MM127 (peptide)
peptide: H[dS]QGTFTSDK([γGlu-γGlu-Palmitoyl])SKYLD[Aib]RAAQDFVQWLMDTK[γGlu]-NH2
modifications: N-terminus assumed
SMILES: CCCCCCCCCCCCCCCC(=O)N[C@@H](CCC(=O)N[C@@H](CCC(=O)NCCCC[C@H](NC(=O)[C@H](CC(=O)O)NC(=O)[C@H](CO)NC(=O)[C@@H](NC(=O)[C@H](Cc1ccccc1)NC(=O)[C@@H](NC(=O)CNC(=O)[C@H](CCC(N)=O)NC(=O)[C@@H](CO)NC(=O)[C@@H](N)Cc1c[nH]cn1)[C@@H](C)O)[C@@H](C)O)C(=O)N[C@@H](CO)C(=O)N[C@@H](CCCCN)C(=O)N[C@@H](Cc1ccc(O)cc1)C(=O)N[C@@H](CC(C)C)C(=O)N[C@@H](CC(=O)O)C(=O)NC(C)(C)C(=O)N[C@@H](CCCNC(=N)N)C(=O)N[C@@H](C)C(=O)N[C@@H](C)C(=O)N[C@@H](CCC(N)=O)C(=O)N[C@@H](CC(=O)O)C(=O)N[C@@H](Cc1ccccc1)C(=O)N[C@H](C(=O)N[C@@H](CCC(N)=O)C(=O)N[C@@H](Cc1c[nH]c2ccccc12)C(=O)N[C@@H](CC(C)C)C(=O)N[C@@H](CCSC)C(=O)N[C@@H](CC(=O)O)C(=O)N[C@H](C(=O)N[C@@H](CCCCN)C(=O)N[C@@H](CCC(N)=O)C(=O)O)[C@@H](C)O)C(C)C)C(=O)O)C(=O)O
hGCGR EC50 (human glucagon receptor): 4 pM
hGLP-1R EC50 (human GLP-1 receptor): 4 pM

B2: MM103 (peptide)
peptide: H[dS]QGTFTSDK([γGlu-γGlu-Palmitoyl])SKYLD[Aib]RRAQDFVQWLMNT[dK][γGlu]-NH2
modifications: N-terminus assumed
SMILES: CCCCCCCCCCCCCCCC(=O)N[C@@H](CCC(=O)N[C@@H](CCC(=O)NCCCC[C@H](NC(=O)[C@H](CC(=O)O)NC(=O)[C@H](CO)NC(=O)[C@@H](NC(=O)[C@H](Cc1ccccc1)NC(=O)[C@@H](NC(=O)CNC(=O)[C@H](CCC(N)=O)NC(=O)[C@@H](CO)NC(=O)[C@@H](N)Cc1c[nH]cn1)[C@@H](C)O)[C@@H](C)O)C(=O)N[C@@H](CO)C(=O)N[C@@H](CCCCN)C(=O)N[C@@H](Cc1ccc(O)cc1)C(=O)N[C@@H](CC(C)C)C(=O)N[C@@H](CC(=O)O)C(=O)NC(C)(C)C(=O)N[C@@H](CCCNC(=N)N)C(=O)N[C@@H](CCCNC(=N)N)C(=O)N[C@@H](C)C(=O)N[C@@H](CCC(N)=O)C(=O)N[C@@H](CC(=O)O)C(=O)N[C@@H](Cc1ccccc1)C(=O)N[C@H](C(=O)N[C@@H](CCC(N)=O)C(=O)N[C@@H](Cc1c[nH]c2ccccc12)C(=O)N[C@@H](CC(C)C)C(=O)N[C@@H](CCSC)C(=O)N[C@@H](CC(N)=O)C(=O)N[C@H](C(=O)N[C@H](CCCCN)C(=O)N[C@@H](CCC(N)=O)C(=O)O)[C@@H](C)O)C(C)C)C(=O)O)C(=O)O
hGCGR EC50 (human glucagon receptor): 5 pM
hGLP-1R EC50 (human GLP-1 receptor): 26 pM

B3: MM102 (peptide)
peptide: H[dS]QGTFTSDK([γGlu-γGlu-Palmitoyl])SKYLD[Aib]RRAQDFVQWLMNTE[γGlu]-NH2
modifications: N-terminus assumed
SMILES: CCCCCCCCCCCCCCCC(=O)N[C@@H](CCC(=O)N[C@@H](CCC(=O)NCCCC[C@H](NC(=O)[C@H](CC(=O)O)NC(=O)[C@H](CO)NC(=O)[C@@H](NC(=O)[C@H](Cc1ccccc1)NC(=O)[C@@H](NC(=O)CNC(=O)[C@H](CCC(N)=O)NC(=O)[C@@H](CO)NC(=O)[C@@H](N)Cc1c[nH]cn1)[C@@H](C)O)[C@@H](C)O)C(=O)N[C@@H](CO)C(=O)N[C@@H](CCCCN)C(=O)N[C@@H](Cc1ccc(O)cc1)C(=O)N[C@@H](CC(C)C)C(=O)N[C@@H](CC(=O)O)C(=O)NC(C)(C)C(=O)N[C@@H](CCCNC(=N)N)C(=O)N[C@@H](CCCNC(=N)N)C(=O)N[C@@H](C)C(=O)N[C@@H](CCC(N)=O)C(=O)N[C@@H](CC(=O)O)C(=O)N[C@@H](Cc1ccccc1)C(=O)N[C@H](C(=O)N[C@@H](CCC(N)=O)C(=O)N[C@@H](Cc1c[nH]c2ccccc12)C(=O)N[C@@H](CC(C)C)C(=O)N[C@@H](CCSC)C(=O)N[C@@H](CC(N)=O)C(=O)N[C@H](C(=O)N[C@@H](CCC(=O)O)C(=O)N[C@@H](CCC(N)=O)C(=O)O)[C@@H](C)O)C(C)C)C(=O)O)C(=O)O
hGCGR EC50 (human glucagon receptor): 3 pM
hGLP-1R EC50 (human GLP-1 receptor): 34 pM

B4: MM132 (peptide)
peptide: H[dS]QGTFTSDK([γGlu-γGlu-Stearoyl])SKYLD[Aib]RRAQDFVQWLMNTK[γGlu]-NH2
modifications: N-terminus assumed
SMILES: CCCCCCCCCCCCCCCCCC(=O)N[C@@H](CCC(=O)N[C@@H](CCC(=O)NCCCC[C@H](NC(=O)[C@H](CC(=O)O)NC(=O)[C@H](CO)NC(=O)[C@@H](NC(=O)[C@H](Cc1ccccc1)NC(=O)[C@@H](NC(=O)CNC(=O)[C@H](CCC(N)=O)NC(=O)[C@@H](CO)NC(=O)[C@@H](N)Cc1c[nH]cn1)[C@@H](C)O)[C@@H](C)O)C(=O)N[C@@H](CO)C(=O)N[C@@H](CCCCN)C(=O)N[C@@H](Cc1ccc(O)cc1)C(=O)N[C@@H](CC(C)C)C(=O)N[C@@H](CC(=O)O)C(=O)NC(C)(C)C(=O)N[C@@H](CCCNC(=N)N)C(=O)N[C@@H](CCCNC(=N)N)C(=O)N[C@@H](C)C(=O)N[C@@H](CCC(N)=O)C(=O)N[C@@H](CC(=O)O)C(=O)N[C@@H](Cc1ccccc1)C(=O)N[C@H](C(=O)N[C@@H](CCC(N)=O)C(=O)N[C@@H](Cc1c[nH]c2ccccc12)C(=O)N[C@@H](CC(C)C)C(=O)N[C@@H](CCSC)C(=O)N[C@@H](CC(N)=O)C(=O)N[C@H](C(=O)N[C@@H](CCCCN)C(=O)N[C@@H](CCC(N)=O)C(=O)O)[C@@H](C)O)C(C)C)C(=O)O)C(=O)O
hGCGR EC50 (human glucagon receptor): 4 pM
hGLP-1R EC50 (human GLP-1 receptor): 24 pM

B5: MM115 (peptide)
peptide: H[dS]QGTFTSDK([Arg-Arg-Palmitoyl])SKYLDERRAQDFVQWLMNTK[γGlu]-NH2
modifications: N-terminus assumed
SMILES: CCCCCCCCCCCCCCCC(=O)N[C@@H](CCCNC(=N)N)C(=O)N[C@@H](CCCNC(=N)N)C(=O)NCCCC[C@H](NC(=O)[C@H](CC(=O)O)NC(=O)[C@H](CO)NC(=O)[C@@H](NC(=O)[C@H](Cc1ccccc1)NC(=O)[C@@H](NC(=O)CNC(=O)[C@H](CCC(N)=O)NC(=O)[C@@H](CO)NC(=O)[C@@H](N)Cc1c[nH]cn1)[C@@H](C)O)[C@@H](C)O)C(=O)N[C@@H](CO)C(=O)N[C@@H](CCCCN)C(=O)N[C@@H](Cc1ccc(O)cc1)C(=O)N[C@@H](CC(C)C)C(=O)N[C@@H](CC(=O)O)C(=O)N[C@@H](CCC(=O)O)C(=O)N[C@@H](CCCNC(=N)N)C(=O)N[C@@H](CCCNC(=N)N)C(=O)N[C@@H](C)C(=O)N[C@@H](CCC(N)=O)C(=O)N[C@@H](CC(=O)O)C(=O)N[C@@H](Cc1ccccc1)C(=O)N[C@H](C(=O)N[C@@H](CCC(N)=O)C(=O)N[C@@H](Cc1c[nH]c2ccccc12)C(=O)N[C@@H](CC(C)C)C(=O)N[C@@H](CCSC)C(=O)N[C@@H](CC(N)=O)C(=O)N[C@H](C(=O)N[C@@H](CCCCN)C(=O)N[C@@H](CCC(N)=O)C(=O)O)[C@@H](C)O)C(C)C
hGCGR EC50 (human glucagon receptor): 1310 pM
hGLP-1R EC50 (human GLP-1 receptor): 1080 pM

B6: MM113 (peptide)
peptide: H[dS]QGTFTSDK([γGlu-γGlu-Palmitoyl])SKYLD[Aib]RRAQDFVQWLMNTE[d(γGlu)]-NH2
modifications: N-terminus assumed
SMILES: CCCCCCCCCCCCCCCC(=O)N[C@@H](CCC(=O)N[C@@H](CCC(=O)NCCCC[C@H](NC(=O)[C@H](CC(=O)O)NC(=O)[C@H](CO)NC(=O)[C@@H](NC(=O)[C@H](Cc1ccccc1)NC(=O)[C@@H](NC(=O)CNC(=O)[C@H](CCC(N)=O)NC(=O)[C@@H](CO)NC(=O)[C@@H](N)Cc1c[nH]cn1)[C@@H](C)O)[C@@H](C)O)C(=O)N[C@@H](CO)C(=O)N[C@@H](CCCCN)C(=O)N[C@@H](Cc1ccc(O)cc1)C(=O)N[C@@H](CC(C)C)C(=O)N[C@@H](CC(=O)O)C(=O)NC(C)(C)C(=O)N[C@@H](CCCNC(=N)N)C(=O)N[C@@H](CCCNC(=N)N)C(=O)N[C@@H](C)C(=O)N[C@@H](CCC(N)=O)C(=O)N[C@@H](CC(=O)O)C(=O)N[C@@H](Cc1ccccc1)C(=O)N[C@H](C(=O)N[C@@H](CCC(N)=O)C(=O)N[C@@H](Cc1c[nH]c2ccccc12)C(=O)N[C@@H](CC(C)C)C(=O)N[C@@H](CCSC)C(=O)N[C@@H](CC(N)=O)C(=O)N[C@H](C(=O)N[C@@H](CCC(=O)O)C(=O)N[C@H](CCC(N)=O)C(=O)O)[C@@H](C)O)C(C)C)C(=O)O)C(=O)O
hGCGR EC50 (human glucagon receptor): 6 pM
hGLP-1R EC50 (human GLP-1 receptor): 23 pM

B7: MM121 (peptide)
peptide: H[dS]QGTFTSDK([γGlu-γGlu-Myristoyl])SKYLD[Aib]RRAQDFVQWLMNTK[γGlu]-NH2
modifications: N-terminus assumed
SMILES: CCCCCCCCCCCCCC(=O)N[C@@H](CCC(=O)N[C@@H](CCC(=O)NCCCC[C@H](NC(=O)[C@H](CC(=O)O)NC(=O)[C@H](CO)NC(=O)[C@@H](NC(=O)[C@H](Cc1ccccc1)NC(=O)[C@@H](NC(=O)CNC(=O)[C@H](CCC(N)=O)NC(=O)[C@@H](CO)NC(=O)[C@@H](N)Cc1c[nH]cn1)[C@@H](C)O)[C@@H](C)O)C(=O)N[C@@H](CO)C(=O)N[C@@H](CCCCN)C(=O)N[C@@H](Cc1ccc(O)cc1)C(=O)N[C@@H](CC(C)C)C(=O)N[C@@H](CC(=O)O)C(=O)NC(C)(C)C(=O)N[C@@H](CCCNC(=N)N)C(=O)N[C@@H](CCCNC(=N)N)C(=O)N[C@@H](C)C(=O)N[C@@H](CCC(N)=O)C(=O)N[C@@H](CC(=O)O)C(=O)N[C@@H](Cc1ccccc1)C(=O)N[C@H](C(=O)N[C@@H](CCC(N)=O)C(=O)N[C@@H](Cc1c[nH]c2ccccc12)C(=O)N[C@@H](CC(C)C)C(=O)N[C@@H](CCSC)C(=O)N[C@@H](CC(N)=O)C(=O)N[C@H](C(=O)N[C@@H](CCCCN)C(=O)N[C@@H](CCC(N)=O)C(=O)O)[C@@H](C)O)C(C)C)C(=O)O)C(=O)O
hGCGR EC50 (human glucagon receptor): 6 pM
hGLP-1R EC50 (human GLP-1 receptor): 131 pM

H[dS]QGTFTSDK([homocysteic acid-homocysteic acid-Palmitoyl])SKYLDERRAQDFVQWLMNTK[γGlu]-NH2 [MM116]
hGCGR EC50 (human glucagon receptor): 850 pM
hGLP-1R EC50 (human GLP-1 receptor): 132 pM

H[dS]QGTFTSDK([dE-dE-Palmitoyl])SKYLDERRAQDFVQWLMNTK[γGlu]-NH2 [MM117]
hGCGR EC50 (human glucagon receptor): 250 pM
hGLP-1R EC50 (human GLP-1 receptor): 930 pM
